Among the data in US20220298225A1 (published 2022) are Kd values, retold here.

Read-outs that look alike come from different tables or passages of the source.

What all share (assay): ELISA
The target in assay [1] is Collagen I.
For assay [2], the target named is Collagen III.
Assay [3] addresses Collagen I. This is another data set of the same source.
Assay [4] addresses Collagen III. The source holds these as a separate data set.

B1: CBD-SA (other)
chain: CSQPLDVILLLDGSSSFPASYFDEMKSFAKAFISKANIGPRLTQVSVLQYGSITTIDVPWNVVPEKAHLLSLVDVMQREGGPSQIGDALGFAVRYLTSEMHGARPGASKAVVILVTDVSVDSVDAAADAARSNRVTVFPIGIGDRYDAAQLRILAGPAGDSNVVKLQRIEDLPTMVTLGNSFLHKLCSGFVRIGGGSGGGSEAHKSEIAHRYNDLGEQHFKGLVLIAFSQYLQKCSYDEHAKLVQEVTDFAKTCVADESAANCDKSLHTLFGDKLCAIPNLRENYGELADCCTKQEPERNECFLQHKDDNPSLPPFERPEAEAMCTSFKENPTTFMGHYLHEVARRHPYFYAPELLYYAEQYNEILTQCCAEADKESCLTPKLDGVKEKALVSSVRQRMKCSSMQKFGERAFKAWAVARLSQTFPNADFAEITKLATDLTKVNKECCHGDLLECADDRAELAKYMCENQATISSKLQTCCDKPLLKKAHCLSEVEHDTMPADLPAIAADFVEDQEVCKNYAEAKDVFLGTFLYEYSRRHPDYSVSLLLRLAKKYEATLEKCCAEANPPACYGTVLAEFQPLVEEPKNLVKTNCDLYEKLGEYGFQNAILVRYTQKAPQVSTPTLVEAARNLGRVGTKCCTLPEDQRLPCVEDYLSAILNRVCLLHEKTPVSEHVTKCCSGSLVERRPCFSALTVDETYVPKEFKAETFTFHSDICTLPEKEKQIKKQTALAELVKHKPKATAEQLKTVMDDFAQFLDTCCKAADKDTCFSTEGPNLVTRCKDALAHHHHHH
As to B1, the Kd in assay [1] came to 1.8 nM; in assay [2], 40.6 nM; in assay [3], 1.8 nM; in assay [4], 40.6 nM.
